Measured values taken from patent US20150344570A1 (published 2015).

T1: FcγRIIa R (FcγRIIa allotype with Arg at position 131), extracellular domain with C-terminal His tag (human, UniProt P12318 34-217)
T1 construct: extracellular domain; made in FreeStyle293 cells; analyte in the Biacore assay; also called FcγRIIa type R; 2aR
T1 sequence (looked up): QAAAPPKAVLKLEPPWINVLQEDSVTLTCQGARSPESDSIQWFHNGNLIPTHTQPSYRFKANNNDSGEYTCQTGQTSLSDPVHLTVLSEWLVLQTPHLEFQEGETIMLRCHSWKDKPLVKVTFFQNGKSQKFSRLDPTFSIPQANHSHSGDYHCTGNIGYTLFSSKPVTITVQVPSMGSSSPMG

T2: FcγRIIb, extracellular domain with C-terminal His tag (human, UniProt P31994 43-217)
T2 construct: extracellular domain; made in FreeStyle293 cells; analyte in the Biacore assay; also called 2b; FcgRIIb
T2 sequence (looked up): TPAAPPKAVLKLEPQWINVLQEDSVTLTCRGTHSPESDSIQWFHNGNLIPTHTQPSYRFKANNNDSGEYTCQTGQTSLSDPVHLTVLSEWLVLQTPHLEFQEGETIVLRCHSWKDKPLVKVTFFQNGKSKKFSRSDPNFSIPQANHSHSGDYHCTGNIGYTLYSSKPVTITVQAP


Legend:
[1] = target: T1, FcγRIIa R (FcγRIIa allotype with Arg at …); assay: SPR (Biacore), antibody captured, FcγR analyte; vs GpH7-A5/GpH7-B3/GpL16-k0 = 100
Description: (§1) The heterodimerized antibodies He Abs in which one of the H chains was introduced with an alteration were assayed for their binding activities to each activating FcγR and inhibitory FcγR according to the method described in Example 4. […] The activating FcγRs in FIGS. 26, 27, 28, and 29 are FcγRIa, FcγRIIa (R), FcγRIIa (H), and FcγRIIIa, respectively.
(§2) Analysis of interaction between objective antibody and the FcγR was carried out using Biacore T100 (GE Healthcare). HBS-EP+ (GE Healthcare) was used as the running buffer, and the measurement temperature was set to 25° C. Chips produced by immobilizing the antigen peptide by the amine coupling method to a Series S Sencor Chip CM5 (GE Healthcare), or alternatively, chips produced by allowing preliminarily biotinylated antigen peptides to interact with and immobilize onto a Series S Sensor Chip SA (certified) (GE Healthcare) were used. Antibodies of interest were captured onto an antigen peptide-immobilized chip, and allowed to interact to each FcγR diluted with running buffer. To regenerate and repeatedly use the chip, the antibodies captured on the chip were washed off by reacting 10 mM glycine-HCl, pH 1.5.

[2] = target: T2, FcγRIIb, extracellular domain with …; assay: as above
Description: as §1, §2

Binder	He/Con_2aR [1]	He/Con_2b [2]
GpH7-A5/GpH7-B3 variant L234_04F/GpL16-k0 (antibody, human IgG1, kappa, heterodimerized IgG1, mutation in one H chain only; also called He Ab) heavy 1: not shown heavy 2: not shown light: DIVMTQSPLSLPVTPGEPASISCQASESLVHSNRNTYLHWYLQKPGQSPQLLIYKVSNRFSGVPDRFSGSGSGTDFTLKISRVEAEDVGVYYCSQNTHVPPTFGQGTKVEIERTVAAPSVFIFPPSDEQLKSGTASVVCLLNNFYPREAKVQWKVDNALQSGNSQESVTEQDSKDSTYSLSSTLTLSKADYEKHKVYACEVTHQGLSSPVTKSFNRGEC	104 relative (HeCon Ab = 100)	99.8 relative (HeCon Ab = 100)
GpH7-A5/GpH7-B3 variant N325_14T/GpL16-k0 (antibody, human IgG1, kappa, heterodimerized IgG1, mutation in one H chain only; also called He Ab) heavy 1: not shown heavy 2: not shown light: DIVMTQSPLSLPVTPGEPASISCQASESLVHSNRNTYLHWYLQKPGQSPQLLIYKVSNRFSGVPDRFSGSGSGTDFTLKISRVEAEDVGVYYCSQNTHVPPTFGQGTKVEIERTVAAPSVFIFPPSDEQLKSGTASVVCLLNNFYPREAKVQWKVDNALQSGNSQESVTEQDSKDSTYSLSSTLTLSKADYEKHKVYACEVTHQGLSSPVTKSFNRGEC	105 relative (HeCon Ab = 100)	91.6 relative (HeCon Ab = 100)
GpH7-A5/GpH7-B3 variant E333_08L/GpL16-k0 (antibody, human IgG1, kappa, heterodimerized IgG1, mutation in one H chain only; also called He Ab) heavy 1: not shown heavy 2: not shown light: DIVMTQSPLSLPVTPGEPASISCQASESLVHSNRNTYLHWYLQKPGQSPQLLIYKVSNRFSGVPDRFSGSGSGTDFTLKISRVEAEDVGVYYCSQNTHVPPTFGQGTKVEIERTVAAPSVFIFPPSDEQLKSGTASVVCLLNNFYPREAKVQWKVDNALQSGNSQESVTEQDSKDSTYSLSSTLTLSKADYEKHKVYACEVTHQGLSSPVTKSFNRGEC	103 relative (HeCon Ab = 100)	95 relative (HeCon Ab = 100)
GpH7-A5/GpH7-B3 variant N325_10E/GpL16-k0 (antibody, human IgG1, kappa, heterodimerized IgG1, mutation in one H chain only; also called He Ab) heavy 1: not shown heavy 2: not shown light: DIVMTQSPLSLPVTPGEPASISCQASESLVHSNRNTYLHWYLQKPGQSPQLLIYKVSNRFSGVPDRFSGSGSGTDFTLKISRVEAEDVGVYYCSQNTHVPPTFGQGTKVEIERTVAAPSVFIFPPSDEQLKSGTASVVCLLNNFYPREAKVQWKVDNALQSGNSQESVTEQDSKDSTYSLSSTLTLSKADYEKHKVYACEVTHQGLSSPVTKSFNRGEC	105 relative (HeCon Ab = 100)	95.9 relative (HeCon Ab = 100)
GpH7-A5/GpH7-B3 variant E333_15Y/GpL16-k0 (antibody, human IgG1, kappa, heterodimerized IgG1, mutation in one H chain only; also called He Ab) heavy 1: not shown heavy 2: not shown light: DIVMTQSPLSLPVTPGEPASISCQASESLVHSNRNTYLHWYLQKPGQSPQLLIYKVSNRFSGVPDRFSGSGSGTDFTLKISRVEAEDVGVYYCSQNTHVPPTFGQGTKVEIERTVAAPSVFIFPPSDEQLKSGTASVVCLLNNFYPREAKVQWKVDNALQSGNSQESVTEQDSKDSTYSLSSTLTLSKADYEKHKVYACEVTHQGLSSPVTKSFNRGEC	101 relative (HeCon Ab = 100)	94.4 relative (HeCon Ab = 100)
GpH7-A5/GpH7-B3 variant H268_12R/GpL16-k0 (antibody, human IgG1, kappa, heterodimerized IgG1, mutation in one H chain only; also called He Ab) heavy 1: not shown heavy 2: not shown light: DIVMTQSPLSLPVTPGEPASISCQASESLVHSNRNTYLHWYLQKPGQSPQLLIYKVSNRFSGVPDRFSGSGSGTDFTLKISRVEAEDVGVYYCSQNTHVPPTFGQGTKVEIERTVAAPSVFIFPPSDEQLKSGTASVVCLLNNFYPREAKVQWKVDNALQSGNSQESVTEQDSKDSTYSLSSTLTLSKADYEKHKVYACEVTHQGLSSPVTKSFNRGEC	105 relative (HeCon Ab = 100)	89.8 relative (HeCon Ab = 100)

Next, values leading:

He/Con_2aR [1]	He/Con_2b [2]	Binder
104 relative (HeCon Ab = 100)	97.6 relative (HeCon Ab = 100)	GpH7-A5/GpH7-B3 variant I336_18N/GpL16-k0 (antibody, human IgG1, kappa, heterodimerized IgG1, mutation in one H chain only; also called He Ab) heavy 1: not shown heavy 2: not shown light: DIVMTQSPLSLPVTPGEPASISCQASESLVHSNRNTYLHWYLQKPGQSPQLLIYKVSNRFSGVPDRFSGSGSGTDFTLKISRVEAEDVGVYYCSQNTHVPPTFGQGTKVEIERTVAAPSVFIFPPSDEQLKSGTASVVCLLNNFYPREAKVQWKVDNALQSGNSQESVTEQDSKDSTYSLSSTLTLSKADYEKHKVYACEVTHQGLSSPVTKSFNRGEC
100 relative (HeCon Ab = 100)	83 relative (HeCon Ab = 100)	GpH7-A5/GpH7-B3 variant H268_11K/GpL16-k0 (antibody, human IgG1, kappa, heterodimerized IgG1, mutation in one H chain only; also called He Ab) heavy 1: not shown heavy 2: not shown light: DIVMTQSPLSLPVTPGEPASISCQASESLVHSNRNTYLHWYLQKPGQSPQLLIYKVSNRFSGVPDRFSGSGSGTDFTLKISRVEAEDVGVYYCSQNTHVPPTFGQGTKVEIERTVAAPSVFIFPPSDEQLKSGTASVVCLLNNFYPREAKVQWKVDNALQSGNSQESVTEQDSKDSTYSLSSTLTLSKADYEKHKVYACEVTHQGLSSPVTKSFNRGEC
105 relative (HeCon Ab = 100)	97.7 relative (HeCon Ab = 100)	GpH7-A5/GpH7-B3 variant E333_05P/GpL16-k0 (antibody, human IgG1, kappa, heterodimerized IgG1, mutation in one H chain only; also called He Ab) heavy 1: not shown heavy 2: not shown light: DIVMTQSPLSLPVTPGEPASISCQASESLVHSNRNTYLHWYLQKPGQSPQLLIYKVSNRFSGVPDRFSGSGSGTDFTLKISRVEAEDVGVYYCSQNTHVPPTFGQGTKVEIERTVAAPSVFIFPPSDEQLKSGTASVVCLLNNFYPREAKVQWKVDNALQSGNSQESVTEQDSKDSTYSLSSTLTLSKADYEKHKVYACEVTHQGLSSPVTKSFNRGEC
